According to paper PMC10140304, “Flagellar brake protein YcgR interacts with motor proteins MotA and FliG to regulate the flagellar rotation speed and direction” (Frontiers in Microbiology, 2023):
Positions count from the first letter of the chain named. Names and notes keep the numbering of the source.

B1: MotAc, cytoplasmic domain of MotA (residues 70-170 of MotA) (domain or fragment, E. coli MG1655, UniProt P09348 70-170, looked up)
chain: YTKAMYMDLLALLYRLMAKSRQMGMFSLERDIENPRESEIFASYPRILADSVMLDFIVDYLRLIISGHMNTFEIEALMDEEIETHESEAEVPANSLALVGD
notes: Flagellar stator protein MotA, E. coli MG1655, cytoplasmic domain, residues 70-170; source: E. coli BL21 (DE3), purified following Hou et al., 2020
B2: mYPet-YcgR(Q38A/D54A/N62A)-mCyPet mutant biosensor (natural protein, E. coli MG1655, UniProt P76010 1-244, looked up)
chain: MSHYHEQFLKQNPLAVLGVLRDLHKAAIPLRLSWNGGALISKLLAITPDKLVLAFGSQAEDAIAVLKAQHITITAETQGAKVEFTVEQLQQSEYLQLPAFITVPPPTLWFVQRRRYFRISAPLHPPYFCQTKLADNSTLRFRLYDLSLGGMGALLETAKPAELQEGMRFAQIEVNMGQWGVFHFDAQLISISERKVIDGKNETITTPRLSFRFLNVSPTVERQLQRIIFSLEREAREKADKVRD
notes: Flagellar brake protein YcgR, E. coli MG1655, triple mutant Q38A/D54A/N62A, between YPet (A206K) and CyPet (A206K); Printed both as QDN/AAA and QND/AAA; also called QDN/AAA; QND/AAA biosensor; source: E. coli BL21 (DE3), purified following Hou et al., 2020; not shown: mYPet (YPet A206K), N-terminal, kept; mCyPet (CyPet A206K), C-terminal, kept
B3: mYPet-YcgR(D54A)-mCyPet mutant biosensor (natural protein, E. coli MG1655, UniProt P76010 1-244, looked up)
chain: B2 chain with A38Q, A62N
notes: Flagellar brake protein YcgR, E. coli MG1655, mutant D54A, between YPet (A206K) and CyPet (A206K); also called YcgR biosensor mutant D54A; source: E. coli BL21 (DE3), purified following Hou et al., 2020; not shown: mYPet (YPet A206K), N-terminal, kept; mCyPet (CyPet A206K), C-terminal, kept
B4: mYPet-YcgR-mCyPet (YcgR-biosensor), wild-type E. coli YcgR (natural protein, E. coli MG1655, UniProt P76010 1-244, looked up)
chain: B2 chain with A38Q, A54D, A62N
notes: Flagellar brake protein YcgR, E. coli MG1655, cloned between YPet (A206K) and CyPet (A206K) in an engineered pET15b; YFP and CFP report FRET within one chain; also called YcgR-FRET; FRET-based YcgR biosensor; source: E. coli BL21 (DE3), purified following Hou et al., 2020; not shown: mYPet (YPet A206K), N-terminal, kept; mCyPet (CyPet A206K), C-terminal, kept

How the values were obtained:
[1] = molecular target: T1, mYPet-YcgR-mCyPet (YcgR-biosensor), wild-type E. coli YcgR (E. coli MG1655), P76010; experiment: FRET or BRET; in vitro, intramolecular FRET of 1.5 uM YcgR biosensor (mYPet-YcgR-mCyPet) titrated with 0-500 uM motor protein, without c-di-GMP; 25 C, SEC buffer (20 mM HEPES pH 7.5, 150 mM NaCl, 10% glycerol); FRET/CFP ratio fitted to a logistic equation; conditions: remark: other sources report otherwise
T1 chain: B2 chain with A38Q, A54D, A62N

[2] = molecular target: T1, mYPet-YcgR-mCyPet (YcgR-biosensor), …; experiment: FRET or BRET; in vitro, intramolecular FRET of 1.5 uM YcgR biosensor oversaturated with excess c-di-GMP (2 mM), titrated with gradient concentrations of motor protein; 25 C, SEC buffer; FRET/CFP ratio fitted to a logistic equation; conditions: remark: other sources report otherwise
[3] = molecular target: B2; experiment: as above; conditions: both partners purified
[4] = molecular target: B2; experiment: FRET or BRET; in vitro, intramolecular FRET of 1.5 uM YcgR biosensor (mYPet-YcgR-mCyPet) titrated with 0-500 uM motor protein, without c-di-GMP; 25 C, SEC buffer (20 mM HEPES pH 7.5, 150 mM NaCl, 10% glycerol); FRET/CFP ratio fitted to a logistic equation; conditions: both partners purified
[5] = molecular target: B3; experiment: as above; conditions: both partners purified
[6] = molecular target: T2, FliG (E. coli MG1655, UniProt P0ABZ1 1-331); experiment: FRET or BRET; in vitro, intramolecular FRET of 1.5 uM YcgR biosensor oversaturated with excess c-di-GMP (2 mM), titrated with gradient concentrations of motor protein; 25 C, SEC buffer; FRET/CFP ratio fitted to a logistic equation; conditions: both partners purified
T2 construct: Flagellar motor switch (rotor) protein FliG, E. coli MG1655; also called individual FliG; rotor protein FliG; source: E. coli BL21 (DE3), purified following Hou et al., 2020
T2 sequence (looked up): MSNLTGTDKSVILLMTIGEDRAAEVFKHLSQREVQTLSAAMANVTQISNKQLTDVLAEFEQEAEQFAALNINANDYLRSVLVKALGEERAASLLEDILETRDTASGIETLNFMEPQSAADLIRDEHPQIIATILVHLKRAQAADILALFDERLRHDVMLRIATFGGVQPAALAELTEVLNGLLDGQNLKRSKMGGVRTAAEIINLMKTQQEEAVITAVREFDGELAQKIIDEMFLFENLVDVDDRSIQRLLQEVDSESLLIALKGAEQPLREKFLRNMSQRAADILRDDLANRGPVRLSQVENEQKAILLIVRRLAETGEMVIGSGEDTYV

[7] = molecular target: T2, FliG; experiment: FRET or BRET; in vitro, intramolecular FRET of 1.5 uM YcgR biosensor (mYPet-YcgR-mCyPet) titrated with 0-500 uM motor protein, without c-di-GMP; 25 C, SEC buffer (20 mM HEPES pH 7.5, 150 mM NaCl, 10% glycerol); FRET/CFP ratio fitted to a logistic equation; conditions: both partners purified

Row | Binder | Kd [1] [µM] | Kd [2] [µM] | Kd [3] [µM] | Kd [4] [µM] | Kd [5] [µM] | Kd [6] [µM] | Kd [7] [µM]
1 | B1 | 123 | 35.9 | 46.1 ± 2.2 | 151 ± 10.2 | 114 ± 11.3 |  | 
2 | B2 |  |  |  |  |  | 235 ± 35.4 | 139 ± 15.6
3 | B3 |  |  |  |  |  | 213 | 141 ± 9.8
4 | B4 |  |  |  |  |  | 107 | 143
